Source: patent US10280205B2, “Method for treating cancer with an activated T lymphocyte that selectively recognizes a cancer cell consisting of specific peptide” (immatics biotechnologies GmbH, priority 2015, dated 2019)

Molecular target: HLA-A*02:01 (Homo sapiens, UniProt P04439, D140Y/D185E/D98H/E176V/E277Q/G131W/G231S/I119V/I121R/I166T/I218V/L300P/L318F/N151K/N90K/P208A/P217A/Q86G/Q94H/R138H/R169H/T345S)
Assay: MHC binding assay: UV-ligand exchange with beta2m ELISA (exchange yield)
Conditions: binding to HLA-A*02:01, β2m ELISA
Excerpt: Candidate peptides for T cell based therapies according to the present invention were further tested for their MHC binding capacity (affinity). The individual peptide-MHC complexes were produced by UV-ligand exchange, where a UV-sensitive peptide is cleaved upon UV-irradiation, and exchanged with the peptide of interest as analyzed. Only peptide candidates that can effectively bind and stabilize the peptide-receptive MHC molecules prevent dissociation of the MHC complexes. To determine the yield of the exchange reaction, an ELISA was performed based on the detection of the light chain (β2m) of stabilized MHC complexes. The assay was performed as generally described in Rodenko et al. (Rodenko et al., 2006).
96 well MAXISorp plates (NUNC) were coated over night with 2 ug/ml streptavidin in PBS at room temperature, washed 4× and blocked for 1 h at 37° C. in 2% BSA containing blocking buffer. […] Peptide-MHC monomers of the UV-exchange reaction were diluted 100 fold in blocking buffer. Samples were incubated for 1h at 37° C., washed four times, incubated with 2 ug/ml HRP conjugated anti-β2m for 1h at 37° C., washed again and detected with TMB solution that is stopped with […]. Absorption was measured at 450 nm. Candidate peptides that show a high exchange yield (preferably higher than 50%, most preferred higher than 75%) are generally preferred for a generation and production of antibodies or fragments thereof, and/or T cell receptors or fragments thereof, as they show sufficient avidity to the MHC molecules and prevent dissociation of the MHC complexes.

Substance | Peptide exchange (MHC class I binding score, peptide exchange yield)
180 (FQIDPHSGLVTV; listed as Homo sapiens) [compound 180] | “++” (≥20% = ++)
266 (KITDTLIHL; listed as Homo sapiens) [compound 266] | “+++” (≥50 = +++)
107 (FLQPVDDTQHL; listed as Homo sapiens) [compound 107] | “+++” (≥50 = +++)
129 (GLLDGGVDILL; listed as Homo sapiens) [compound 129] | “+++” (≥50 = +++)
162 (YQQAQVPSV; listed as Homo sapiens) [compound 162] | “+++” (≥50 = +++)
100 (YLLSTNAQL; listed as Homo sapiens) [compound 100] | “++++” (≥75% = ++++)
33 (VLLSLLEKV; listed as Homo sapiens) [compound 33] | “++” (≥20% = ++)
53 (KMIETDILQKV; listed as Homo sapiens) [compound 53] | “++++” (≥75% = ++++)
45 (SLWQDIPDV; listed as Homo sapiens) [compound 45] | “+++” (≥50 = +++)
275 (YLVYILNEL; listed as Homo sapiens) [compound 275] | “++” (≥20% = ++)
193 (QLLDADGFLNV; listed as Homo sapiens) [compound 193] | “+++” (≥50 = +++)
16 (VLFQGQASL; listed as Homo sapiens) [compound 16] | “+++” (≥50 = +++)
95 (SVIPQIQKV; listed as Homo sapiens) [compound 95] | “+++” (≥50 = +++)
279 (ALWGGTQPLL; listed as Homo sapiens) [compound 279] | “++” (≥20% = ++)
285 (QLLHVGVTV; listed as Homo sapiens) [compound 285] | “+++” (≥50 = +++)
257 (SIFSAFLSV; listed as Homo sapiens) [compound 257] | “+++” (≥50 = +++)
206 (VLQEGKLQKLAQL; listed as Homo sapiens) [compound 206] | “+++” (≥50 = +++)

Substance | Peptide exchange (MHC class I binding score, peptide exchange yield)
144 (YIMEPSIFNTL; listed as Homo sapiens) [compound 144] | “+++” (≥50 = +++)
115 (AIAGAGILYGV; listed as Homo sapiens) [compound 115] | “++” (≥20% = ++)
302 (ALLQEGEVYSA; listed as Homo sapiens) [compound 302] | “+++” (≥50 = +++)
14 (AAYGGLNEKSFV; listed as Homo sapiens) [compound 14] | “+++” (≥50 = +++)
173 (LLDSASAGLYL; listed as Homo sapiens) [compound 173] | “+++” (≥50 = +++)
265 (LLFGGTKTV; listed as Homo sapiens) [compound 265] | “++” (≥20% = ++)
90 (TLLQIIETV; listed as Homo sapiens) [compound 90] | “+++” (≥50 = +++)
122 (FLLAEDDIYL; listed as Homo sapiens) [compound 122] | “+++” (≥50 = +++)
170 (RLQETLSAA; listed as Homo sapiens) [compound 170] | “+++” (≥50 = +++)
46 (ILTEENIHL; listed as Homo sapiens) [compound 46] | “+++” (≥50 = +++)
248 (FLFPNQYVDV; listed as Homo sapiens) [compound 248] | “+++” (≥50 = +++)
82 (FLSSVTYNL; listed as Homo sapiens) [compound 82] | “+++” (≥50 = +++)
18 (YLVAKLVEV; listed as Homo sapiens) [compound 18] | “++” (≥20% = ++)
23 (VLLDDIFAQL; listed as Homo sapiens) [compound 23] | “+++” (≥50 = +++)
304 (MTLGQIYYL; listed as Homo sapiens) [compound 304] | “+++” (≥50 = +++)
5 (HLTEVYPEL; listed as Homo sapiens) [compound 5] | “+++” (≥50 = +++)
114 (SLVGEPILQNV; listed as Homo sapiens) [compound 114] | “++” (≥20% = ++)

Second part, the substance after the results:

Peptide exchange (MHC class I binding score, peptide exchange yield) | Substance
“+++” (≥50 = +++) | 572 (ALADLIEKELSV; listed as Homo sapiens) [compound 572]
“+++” (≥50 = +++) | 327 (GLAPFTEGISFV; listed as Homo sapiens) [compound 327]
“+++” (≥50 = +++) | 317 (SLAALVVHV; listed as Homo sapiens) [compound 317]
“+++” (≥50 = +++) | 343 (SLLEVNEESTV; listed as Homo sapiens) [compound 343]
“+++” (≥50 = +++) | 506 (KLLGKVETA; listed as Homo sapiens) [compound 506]
“+++” (≥50 = +++) | 386 (ILFRYPLTI; listed as Homo sapiens) [compound 386]
“+++” (≥50 = +++) | 493 (GLLGEKTQDLIGV; listed as Homo sapiens) [compound 493]
“+++” (≥50 = +++) | 563 (WLLPYNGVTV; listed as Homo sapiens) [compound 563]
“+++” (≥50 = +++) | 542 (RVWDISTVSSV; listed as Homo sapiens) [compound 542]
“++++” (≥75% = ++++) | 320 (KMFEFVEPLL; listed as Homo sapiens) [compound 320]
“++” (≥20% = ++) | 459 (ALITEVVRL; listed as Homo sapiens) [compound 459]
“++++” (≥75% = ++++) | 585 (ALWDLAADKQTL; listed as Homo sapiens) [compound 585]
“++++” (≥75% = ++++) | 347 (SLFKHDPAAWEA; listed as Homo sapiens) [compound 347]
“++” (≥20% = ++) | 538 (LLLAHIIAL; listed as Homo sapiens) [compound 538]
“+++” (≥50 = +++) | 601 (SAFPFPVTV; listed as Homo sapiens) [compound 601]
“+++” (≥50 = +++) | 342 (HIYDKVMTV; listed as Homo sapiens) [compound 342]
“+++” (≥50 = +++) | 496 (FLVEKQPPQV; listed as Homo sapiens) [compound 496]
“+++” (≥50 = +++) | 332 (YLISELEAA; listed as Homo sapiens) [compound 332]
“+++” (≥50 = +++) | 543 (GLLPTPITQQASL; listed as Homo sapiens) [compound 543]
“+++” (≥50 = +++) | 457 (SLLPGNLVEKV; listed as Homo sapiens) [compound 457]
“++” (≥20% = ++) | 504 (GLSDGNPSL; listed as Homo sapiens) [compound 504]
“+++” (≥50 = +++) | 514 (ILVDWLVQV; listed as Homo sapiens) [compound 514]
“+++” (≥50 = +++) | 593 (GLPRFGIEMV; listed as Homo sapiens) [compound 593]
“+++” (≥50 = +++) | 437 (SMAPGLVIQAV; listed as Homo sapiens) [compound 437]
“++++” (≥75% = ++++) | 337 (HLLSELEAAPYL; listed as Homo sapiens) [compound 337]
“+++” (≥50 = +++) | 557 (KLYDDMIRL; listed as Homo sapiens) [compound 557]
“++” (≥20% = ++) | 559 (VTVPPGPSL; listed as Homo sapiens) [compound 559]
